Results on six compounds are retold here after article PMC7162832, “An unusual metal-bound 4-fluorothreonine transaldolase from Streptomyces sp. MA37 catalyses promiscuous transaldol reactions” (Applied Microbiology and Biotechnology, 2020).

Series [1] addresses 4-fluorothreonine transaldolase from Streptomyces sp. MA37 (Streptomyces sp. MA37) (UniProt W0W999). The series can be described thus: SEC; ENrich High-Resolution Size Exclusion Column (Bio-Rad, 25 mL), isocratic elution; oligomeric state estimated from the retention time.
Series [2] addresses T1, FTaseMA (Streptomyces sp. MA37, UniProt W0W903). Put plainly: biochemical. On the set-up: gene flFT1.
Text: acetaldehyde release, DNPH derivatisation and HPLC on FTaseMA
Series [3] deals with T1, FTaseMA. Put plainly: DNPH derivatisation and HPLC. On the set-up: gene flFT1; full-length (SHMT-like S domain plus aldolase-like A domain), N-His6, from MA37 genomic DNA in pGM1190 (pMBC001), expressed in Streptomyces lividans 66; dimer. The format is biochemical.
Series [4] relates to O=CCF. The series can be described thus: purified protein. To be noted: apparent, FAd 0.12-2.4 mM, L-threonine 20 mM (methods: 0.5-20 mM aldehyde, 5 mM L-Thr), PLP 0.1 mM, Tris-HCl pH 7.5.
Series [5] deals with CC(C)C=O. The series can be described thus: purified protein. To be noted: L-threonine 5 mM, PLP 0.1 mM, Tris-HCl pH 7.5.
The subject of series [6] is O=CCCl. Put plainly: purified protein. The settings on record: L-threonine 5 mM, PLP 0.1 mM, Tris-HCl pH 7.5.
Series [7] deals with O=CCc1ccccc1. The series can be described thus: purified protein. To be noted: L-threonine 5 mM, PLP 0.1 mM, Tris-HCl pH 7.5.

“4-fluorothreonine transaldolase from Streptomyces sp. MA37 (from UniProt W0W999 1-299) (enzyme)”: the stoichiometry N – broadly, a count of units in the complex or per binding partner – in series [1] is 2.

With `C[C@@H](O)[C@H](N)C(=O)O` [compound 6, L-threonine], the Km – broadly, the substrate concentration at which the rate is half of its maximum – in series [2] was 1.18 ± 0.007 mM.

Consider `O=CCO` [compound 9, glycolaldehyde], for which, in series [3], the Km came out at 357 ± 10 µM.

On to `CCC=O` [compound 11, propanal], for which, in series [3], the Km stood at 1450 ± 179 µM.

For the compound `C[C@H](O)[C@H](N)C(=O)O` [compound 19, L-allo-threonine], the Km in series [2] is 1.18 ± 0.006 mM.

On to FTaseMA (Streptomyces sp. MA37), for which the Km in series [4] amounted to 0.241 ± 0.002 mM; in series [5], 0.535 ± 0.078 mM; in series [6], 1.350 ± 0.001 mM; in series [7], 0.358 ± 0.006 mM. Further, the kcat (commonly the maximal rate divided by the concentration of active sites) is 0.03 s⁻¹ in series [4], 0.0135 s⁻¹ in series [5], 0.0238 s⁻¹ in series [6] and 0.00975 s⁻¹ in series [7]. Besides, the catalytic efficiency (kcat/Km) (as a rule, the turnover number divided by the Michaelis constant) in series [4] amounted to 125 M⁻¹ s⁻¹; in series [5], 25.4 M⁻¹ s⁻¹; in series [6], 17.6 M⁻¹ s⁻¹; in series [7], 27.2 M⁻¹ s⁻¹.
